Reference: patent US10295490B2, “MEMS-based calorimeter, fabrication, and use thereof” (The Trustees Of Columbia University In the City of New York, priority 2014, dated 2019)

Assays:
[1] = MEMS DSC measurement of lysozyme unfolding (Example 2); type: physicochemical; settings: 0.1 M Glycine-HCl buffer pH 2.5; 1 to 20 mg/mL; scan 25-75° C. at 5° C./min
Method: DSC measurements of biomolecules were performed using the calibrated microdevice, whose sample chamber and reference chamber were respectively filled with biological sample and buffer solutions, scanned in a range of temperature of interest. The temperature sensors were used to monitor the temperatures of calorimetric chambers while the device output was obtained in real time to compute the biomolecular thermal power. Before DSC measurements, the baseline in device output, i.e., the thermopile output voltage in the absence of a differential power input, during temperature scanning was measured with both calorimetric chambers filled with buffer solutions. […]
The thermopile output voltage as a function of temperature, corrected by baseline subtraction, was measured at varying protein concentrations ranging from 1 to 20 mg/mL (FIG. 10).
Despite the amplitude difference of device output at various protein concentrations, they all yielded consistent estimates of the thermodynamic properties associated with the protein unfolding process. In particular, the profile shape of c was generally not influenced by protein concentration, and ΔH was consistently determined to be approximately 450 kJ/mol with a corresponding melting temperature Tm of approximately 55° C.

[2] = Polymer MEMS DSC measurement of lysozyme unfolding (Example 6); type: physicochemical; settings: 0.1 M Glycine-HCL buffer pH 2.5; scan 5 K/min; all concentrations except 1 mg/mL
Method: The sample solutions and buffer were degassed overnight in a vacuum chamber built in-house, metered with Micropipettes, and introduced by a syringe pump (New Era Pump Systems, Inc., NE-1000) before the DSC measurements.
Before DSC measurements, the baseline, i.e., the thermopile output voltage in the absence of a differential power input, during temperature scanning in the range of interest was recorded with both calorimetric channels filled with buffer solutions. After which, characterizations of biomolecules were performed with the calorimetric channels, respectively filled with a biological sample and a buffer solutions, and scanned in the same range with pre-specified rate. The temperature sensors were used to monitor the temperatures of calorimetric channels, while the device output was obtained in real time to compute the biomolecular thermal power.
The calibrated polymer MEMS DSC device was then exploited to characterize protein unfolding. […]
The thermopile differential voltage as a function of temperature, corrected by baseline subtraction, was measured at varying concentrations ranging from 1 to 20 mg/mL (FIG. 42). […] Furthermore, the differential heat capacity as a function of temperature and the calibrated device sensitivity can be calculated from the device voltage output by Equation 7. The sample heat capacity as a function of temperature was determined by: […]

[3] = MEMS AC-DSC measurement of lysozyme unfolding (Example 3); type: physicochemical; settings: 10 and 20 mg/mL in 0.1 M Glycine-HCl pH 2.5, 5° C./min, modulation 1, 5 or 10 Hz
From the text: The microdevice was also placed in a thermal enclosure built in-house. […] The AC-DSC measurement was fully automated through a Lab VIEW program.
The MEMS AC-DSC device calibrated above was used to measure the thermal behavior of protein unfolding.
Meanwhile, the specific heat capacity (c) of the protein as a function of temperature can be computed from the thermopile voltage amplitude (FIG. 19).

[4] = cited from earlier work

Substance: lysozyme: targeted sample biomolecule, purchased from Sigma Aldrich (lyophilized powder, protein ≥90%), used for protein unfolding DSC
- melting temperature Tm [1]: approximately 55 °C
- total change of molar enthalpy (ΔH) of lysozyme unfolding [1]: approximately 450 kJ/mol
- melting temperature Tm [2]: 54.71 °C
- total enthalpy change per mole of lysozome (ΔH) [2]: 101 kcal/mol
- apparent melting temperature (Tm) [3]: 55-58 °C
- Tm of lysozyme, published data [4]: 55-58.9 °C
- ΔH of lysozyme unfolding, published data [4]: 90.1 to 105 kcal/mol
